Patent publication US6040149A, “Assay for identifying agents which act on the ceramide-activated protein kinase, kinase suppressor of ras, and methods of using said agents” (priority 1997, dated 2000)
Like-named read-outs stand apart in the source and are kept apart here.

Key:
KSR = biological target: T1, KSR (Mus musculus, UniProt Q61097); assay: KSR activity toward Raf-1 peptides in vitro; format: biochemical, mouse (KSR immunoprecipitated from COS-7 cells); design: Raf-1 peptides as substrate
T1 sequence (Q61097 1-873): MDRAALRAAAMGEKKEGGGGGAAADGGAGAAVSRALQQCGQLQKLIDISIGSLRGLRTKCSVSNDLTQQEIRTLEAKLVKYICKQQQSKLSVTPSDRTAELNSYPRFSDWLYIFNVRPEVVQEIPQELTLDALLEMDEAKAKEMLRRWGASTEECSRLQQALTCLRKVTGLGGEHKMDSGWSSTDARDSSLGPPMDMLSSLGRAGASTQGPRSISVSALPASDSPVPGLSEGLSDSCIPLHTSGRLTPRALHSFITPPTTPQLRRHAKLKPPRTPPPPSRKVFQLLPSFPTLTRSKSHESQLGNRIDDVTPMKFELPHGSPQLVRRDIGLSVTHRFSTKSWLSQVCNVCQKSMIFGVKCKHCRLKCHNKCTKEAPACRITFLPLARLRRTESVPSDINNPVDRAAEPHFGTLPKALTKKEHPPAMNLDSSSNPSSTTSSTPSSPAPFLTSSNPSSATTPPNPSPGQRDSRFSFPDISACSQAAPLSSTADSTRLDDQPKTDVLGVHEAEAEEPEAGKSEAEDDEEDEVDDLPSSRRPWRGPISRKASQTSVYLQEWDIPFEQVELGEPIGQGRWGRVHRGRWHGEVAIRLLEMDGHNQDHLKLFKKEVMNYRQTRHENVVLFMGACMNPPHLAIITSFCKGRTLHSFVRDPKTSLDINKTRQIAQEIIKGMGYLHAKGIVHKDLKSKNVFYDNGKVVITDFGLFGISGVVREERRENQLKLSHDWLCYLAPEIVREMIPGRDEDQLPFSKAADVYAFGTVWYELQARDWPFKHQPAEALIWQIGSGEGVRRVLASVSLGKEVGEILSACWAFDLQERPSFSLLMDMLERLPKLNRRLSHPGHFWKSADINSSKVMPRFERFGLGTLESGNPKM
In short: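 Flag-tagged KSR immunoprecipitated from COS-7 lysate, incubated with 0.3 mM Raf-1 TTLP peptide, 10 mM MnCl2, 5 μM ATP plus [γ-32P]ATP at 22 °C, with 30 nM ceramide or other lipids; P81 filter binding and Cerenkov counting, AALP-peptide background subtracted.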

Raf-1 = assay: Kinase activity of immunoprecipitated Raf-1 toward MEK1 after HL-60 cell stimulation; format: cell-based, human (HL-60 cells)
Method: Recovery of MEK1 was monitored by western blot (Bottom Panel). Identical results were obtained with cells stimulated for 5 min with TNF.
Recovery of MEK1 was monitored by western blot (Bottom Panel).
These studies indicate that Raf-1 is a component of the sphingomyelin pathway mediating TNF action.
MEK1 autophosphorylation was for 45 min. An autoradiogram of MEK1 phosphorylation (top panel) and recovery of MEK1 protein by western blot (bottom panel) are shown. For western blot, proteins separated by SDS-PAGE were electrotransferred to an Immobilon PVDF membrane at 12 volts overnight at 4° C. Membranes were then blocked with 2% BSA in TBS [20 mM Tris, pH 7.6, 137 mM NaCl] for 1 hr and washed with TBST (TBS containing 0.2% Tween-20).

[1] = tested on: ceramide-activated protein kinase; settings: for membrane-bound kinase activity, fold increase: TNF-α 30 nM
[2] = tested on: ceramide-activated protein kinase; settings: ref. [40]; cited from earlier work

CCCCCCCCCCCCCC(=O)O[C@@H]1[C@@H](C)[C@@]2(O)[C@@H](C=C(CO)C[C@]3(O)C(=O)C(C)=C[C@@H]23)[C@@H]2C(C)(C)[C@]12OC(C)=O [TPA, 12-0-tetradecanoylphorbol-13-acetate]
effect on activation of KSR towards Raf-peptide (KSR; 30 nM): no effect | increase of Raf-1 activity (Raf-1; TPA 100 ng/ml, 10 min, maximum): 4 fold of control

CCCCCCCCCCCCC/C=C/[C@@H](O)[C@@H](N)CO [sphingosine]
activation of KSR (KSR): fail to activate KSR | effect on kinase activity in membranes of stimulated HL-60 cells ([1]; cholera toxin 10 nM, retinoic acid 0.5 μM, butyrate 0.5 mM): similarly as effective as C8-cer

TNF-α
kinase activity of Raf-1 toward MEK1 (Raf-1; HL-60 cells treated with TNF or ceramide analogs): 10-20 fold | ED50 for stimulation of ceramide-activated protein kinase in intact cells [2]: 0.2 nM | kinase activity, fold of control ([1]; 3 pM TNF-α, 60 minutes): 1.1 fold of control | maximal kinase activity, fold of control ([1]; 30 nM TNF-α, 60 minutes): 1.8 fold of control | ED50 for kinase activity ([1]; 60 minutes of stimulation): ≈ 200 pM | membrane-bound kinase activity, fold increase ([1]; 5 minutes): 1.5 fold | membrane-bound kinase activity, fold increase ([1]; 2 hours): 2.2 fold | membrane-bound kinase activity, fold increase ([1]; 2 hours, listed as TNF): 2 fold
